Reference: the supplement of paper PMC6757056
± gives the standard deviation of the averaged measurements.

B1: library; a variant is named by its letters at N, in order (parent)
chain: GCUGUCACCGGUGCUUGGUACGUUAUAUUCAGCCGGUCUGAUGAGUCUNNNNNNAGACGAAACAGC

Legend:
(6R,S)-folinic acid [1] = variants of: B1; assay: FACS-Seq fitted mean relative fluorescence mCherry/BFP without ligand (log10 relative fluorescence); HEK293T overexpressing SLC46A1; higher = higher reporter protein expression; conditions: without (6R,S)-folinic acid; ligand present: no
In short: (§1)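 To measure fluorescence, a normal distribution was fitted to read counts across sorted bins. The reporter libraries were HEK293T cells transduced by lentivirus with mCherry under ribozyme-switch control and an EF1α-BFP marker, enriched and then kept with or without ligand for 48 h. Sorting used 6 mCherry/BFP bins, and bin genomic DNA was PCR-amplified and sequenced on MiSeq. Fitted means of log10(mCherry/BFP) were scaled to five spiked-in control ribozymes.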

(6R,S)-folinic acid [2] = variants of: B1; assay: normalized RNA/DNA level without ligand (relative to sTRSVctl = 100) (log10 (% of sTRSVctl)); HEK293T overexpressing SLC46A1; higher = less ribozyme self-cleavage, higher mRNA level; conditions: without (6R,S)-folinic acid; ligand present: no
In short: (§2)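 Total RNA, extracted with EDTA 72 h after HEK293T cells were transfected with 4 µg per 6-well well of reporter-linked ribozyme switch library plasmids, was reverse-transcribed, amplified, barcoded and sequenced. Ligand, if used, was added 1 h before transfection. RNA level was derived from RNA reads divided by DNA reads and normalized to a spiked-in non-cleaving sequence or to the top sequences. This was multiplied by 100 and log10-transformed, with the top set of 25 sequences and a ≥100 DNA read minimum.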

(6R,S)-folinic acid [3] = variants of: B1; assay: FACS-Seq fitted mean relative fluorescence mCherry/BFP with ligand (log10 relative fluorescence); HEK293T overexpressing SLC46A1; ligand concentration (+) FACS-Seq: 6 mM; higher = higher reporter protein expression; conditions: with (6R,S)-folinic acid; ligand present: yes
In short: as §1

(6R,S)-folinic acid [4] = variants of: B1; assay: normalized RNA/DNA level with ligand (relative to sTRSVctl = 100) (log10 (% of sTRSVctl)); HEK293T overexpressing SLC46A1; ligand concentration (+) RNA-Seq: 6 mM; higher = less ribozyme self-cleavage, higher mRNA level; conditions: with (6R,S)-folinic acid; ligand present: yes
In short: as §2

Row | Variant | FACS-Seq fitted mean (log10) ((6R,S)-folinic acid [1]) | normalized RNA/DNA level without ligand (log10) ((6R,S)-folinic acid [2]) | FACS-Seq fitted mean (log10) ((6R,S)-folinic acid [3]) | normalized RNA/DNA level with ligand (log10) ((6R,S)-folinic acid [4])
1 | UUCAUG | 0.548 ± 0.083 | 1.86 ± 0.014 | 0.703 ± 0.25 | 1.97 ± 0.067
2 | GUUACC | 0.497 ± 0.022 | 2.047 ± 0.013 | 0.281 ± 0.23 | 2.03 ± 0.026
3 | AUGACA | 0.187 ± 0.069 | 1.987 ± 0.0094 | 0.323 ± 0.037 | 2 ± 0.032
4 | AUGACU | 0.261 ± 0.032 | 2.01 ± 0.025 | 0.313 ± 0.27 | 2.02 ± 0.03
5 | AUGACG | 0.318 ± 0.062 | 1.941 ± 0.0037 | 0.394 ± 0.14 | 2.02 ± 0.022
6 | UUGAGG | 0.275 ± 0.1 | 1.86 ± 0.025 | 0.336 ± 0.18 | 2.006 ± 0.0026
7 | UUGAGA | 0.325 ± 0.084 | 1.841 ± 0.013 | 0.468 ± 0.01 | 1.993 ± 0.0082
8 | UUAUUG | 0.469 ± 0.069 | 1.82 ± 0.035 | 0.551 ± 0.16 | 1.97 ± 0.038
9 | UUAUUU | 0.415 ± 0.024 | 1.982 ± 0.0056 | 0.569 ± 0.26 | 2 ± 0.022
10 | GUGCUG | -0.457 ± 0.06 | 2.077 ± 0.012 | -0.879 ± 0.14 | 2.05 ± 0.065
11 | UUCCUG | 0.284 ± 0.092 | 1.96 ± 0.027 | 0.493 ± 0.079 | 2.03 ± 0.024
12 | GUCAGG | 0.338 ± 0.065 | 1.938 ± 0.015 | 0.29 ± 0.076 | 1.974 ± 0.018
13 | GUGGAC | 0.143 ± 0.12 | 1.868 ± 0.016 | -0.011 ± 0.21 | 1.975 ± 0.0039
14 | UUGUAU | -0.387 ± 0.048 | 1.99 ± 0.02 | -0.176 ± 0.12 | 2.014 ± 0.0072
15 | UUGUAG | 0.271 ± 0.0067 | 1.866 ± 0.0056 | 0.397 ± 0.18 | 1.992 ± 0.0089
16 | UUCAGG | 0.449 ± 0.081 | 1.894 ± 0.0032 | 0.666 ± 0.2 | 1.98 ± 0.057
17 | CUGAGA | -0.345 ± 0.055 | 1.985 ± 0.0047 | -0.472 ± 0.062 | 1.99 ± 0.035
18 | GUCGAU | 0.179 ± 0.051 | 1.986 ± 0.015 | 0.225 ± 0.17 | 2.02 ± 0.026
19 | GUCGAC | 0.479 ± 0.017 | 1.965 ± 0.0058 | 0.62 ± 0.022 | 2.025 ± 0.0097
20 | AUGCGA | 0.422 ± 0.019 | 1.979 ± 0.00081 | 0.569 ± 0.15 | 2.01 ± 0.035
21 | AUGCGU | 0.523 ± 0.16 | 1.951 ± 0.016 | 0.63 ± 0.3 | 1.99 ± 0.031
22 | AUGCGG | 0.0258 ± 0.11 | 1.939 ± 0.013 | 0.185 ± 0.22 | 2.02 ± 0.043
23 | GUCGUA | 0.666 ± 0.21 | 2.0187 ± 0.00087 | 0.497 ± 0.34 | 2.01 ± 0.025
24 | UUCGAG | 0.119 ± 0.084 | 1.77 ± 0.033 | 0.699 ± 0.054 | 1.97 ± 0.055

Row | Variant | FACS-Seq fitted mean (log10) ((6R,S)-folinic acid [1]) | normalized RNA/DNA level without ligand (log10) ((6R,S)-folinic acid [2]) | FACS-Seq fitted mean (log10) ((6R,S)-folinic acid [3]) | normalized RNA/DNA level with ligand (log10) ((6R,S)-folinic acid [4])
25 | UUGUUA | 0.514 ± 0.052 | 2.03 ± 0.014 | 0.793 ± 0.16 | 2.07 ± 0.031
26 | AUCUGG | 0.349 ± 0.012 | 1.92 ± 0.023 | 0.27 ± 0.019 | 2.02 ± 0.042
27 | UUGCUA | 0.353 ± 0.027 | 2.002 ± 0.0079 | 0.377 ± 0.051 | 2.04 ± 0.026
28 | CUGGAA | 0.184 ± 0.035 | 1.9175 ± 0.00021 | 0.243 ± 0.021 | 1.97 ± 0.028
29 | CUGGAU | 0.302 ± 0.025 | 1.966 ± 0.018 | 0.179 ± 0.028 | 2.02 ± 0.022
30 | CUCAAU | 0.0874 ± 0.13 | 1.97 ± 0.036 | 0.0541 ± 0.42 | 1.971 ± 0.011
31 | CUCUUA | 0.211 ± 0.012 | 2.0064 ± 0.0006 | 0.143 ± 0.3 | 2 ± 0.03
32 | UUGCAG | 0.439 ± 0.019 | 1.886 ± 0.0031 | 0.636 ± 0.033 | 2 ± 0.042
33 | CUGGGA | 0.446 ± 0.08 | 2.006 ± 0.014 | 0.348 ± 0.35 | 2.03 ± 0.047
34 | GUCUUG | 0.0388 ± 0.018 | 1.974 ± 0.0081 | 0.151 ± 0.32 | 2.05 ± 0.049
35 | UUCUAA | 0.64 ± 0.015 | 2.014 ± 0.011 | 0.66 ± 0.067 | 2.01 ± 0.026
36 | UUCUAG | 0.502 ± 0.03 | 1.879 ± 0.0029 | 0.872 ± 0.074 | 1.99 ± 0.044
37 | GUGUAG | 0.435 ± 0.018 | 1.899 ± 0.0022 | 0.514 ± 0.18 | 1.998 ± 0.016
38 | GUGUAC | -0.753 ± 0.24 | 1.942 ± 0.0035 | -0.684 ± 0.34 | 2.005 ± 0.0037
39 | GUGUAA | 0.21 ± 0.21 | 1.957 ± 0.0042 | 0.383 ± 0.18 | 2 ± 0.041
40 | CUGCCC | 0.494 ± 0.029 | 2.07 ± 0.041 | 0.403 ± 0.0067 | 2.06 ± 0.021
41 | GUCCCC | -0.921 ± 0.05 | 2.022 ± 0.014 | -1.94 ± 0.26 | 1.995 ± 0.0047
42 | AUGUGG | 0.0386 ± 0.035 | 1.844 ± 0.0091 | 0.311 ± 0.041 | 2.01 ± 0.046
43 | GUAUUU | 0.142 ± 0.24 | 2 ± 0.022 | 0.173 ± 0.0069 | 2.01 ± 0.033
44 | UUGAUG | 0.136 ± 0.018 | 1.797 ± 0.0018 | 0.436 ± 0.22 | 1.99 ± 0.046
45 | GUGACC | 0.7143 ± 0.0036 | 2.03 ± 0.0039 | 0.585 ± 0.22 | 2.02 ± 0.028
46 | GUGACA | 0.277 ± 0.2 | 1.989 ± 0.003 | 0.446 ± 0.1 | 1.99 ± 0.05
47 | AUCGCU | 0.152 ± 0.036 | 2.026 ± 0.01 | 0.222 ± 0.45 | 2.013 ± 0.015
48 | AUGAAG | 0.432 ± 0.049 | 1.836 ± 0.0092 | 0.578 ± 0.14 | 1.99 ± 0.048

Row | Variant | FACS-Seq fitted mean (log10) ((6R,S)-folinic acid [1]) | normalized RNA/DNA level without ligand (log10) ((6R,S)-folinic acid [2]) | FACS-Seq fitted mean (log10) ((6R,S)-folinic acid [3]) | normalized RNA/DNA level with ligand (log10) ((6R,S)-folinic acid [4])
49 | AUGAAU | 0.232 ± 0.017 | 1.929 ± 0.013 | 0.0739 ± 0.05 | 2 ± 0.022
50 | AUGAAA | 0.535 ± 0.016 | 1.944 ± 0.0099 | 0.656 ± 0.15 | 1.98 ± 0.033
51 | GUGUCA | 0.425 ± 0.12 | 2.008 ± 0.0044 | 0.477 ± 0.009 | 2.03 ± 0.033
52 | GUGUGC | -0.0812 ± 0.0037 | 1.758 ± 0.017 | 0.131 ± 0.14 | 1.979 ± 0.0082
53 | GUGUGU | 0.164 ± 0.1 | 1.942 ± 0.0063 | 0.271 ± 0.083 | 2.02 ± 0.036
54 | GUGUGA | 0.383 ± 0.041 | 1.9667 ± 0.00054 | 0.136 ± 0.21 | 2.038 ± 0.013
55 | UUUACC | 0.636 ± 0.0052 | 1.996 ± 0.018 | 0.724 ± 0.077 | 1.97 ± 0.036
56 | UUUACU | 0.0671 ± 0.017 | 2.032 ± 0.0085 | -0.0776 ± 0.03 | 2.033 ± 0.013
57 | GUCAUG | 0.406 ± 0.047 | 2.004 ± 0.01 | 0.165 ± 0.087 | 2.03 ± 0.027
58 | AUAUUG | 0.176 ± 0.067 | 1.896 ± 0.0041 | 0.136 ± 0.13 | 1.97 ± 0.011
59 | AUAUUC | -0.738 ± 0.81 | 2.035 ± 0.019 | -1.5 ± 0.9 | 2.031 ± 0.01
60 | AUCGAG | 0.076 ± 0.01 | 1.813 ± 0.017 | 0.217 ± 0.22 | 2 ± 0.032
61 | AUCGAC | 0.0463 ± 0.0065 | 2.041 ± 0.0079 | 0.0476 ± 0.024 | 2.01 ± 0.03
62 | UUCCGA | -0.0446 ± 0.086 | 1.997 ± 0.002 | -0.101 ± 0.13 | 1.999 ± 0.018
63 | CUGAAA | 0.38 ± 0.12 | 1.986 ± 0.0076 | 0.578 ± 0.071 | 2 ± 0.014
64 | GUGAUA | 0.573 ± 0.073 | 1.97 ± 0.017 | 0.371 ± 0.036 | 2 ± 0.022
65 | AUCAGU | -0.132 ± 0.056 | 1.97 ± 0.021 | -0.238 ± 0.53 | 1.996 ± 0.017
66 | CUCCGC | 0.443 ± 0.04 | 2.042 ± 0.0057 | 0.294 ± 0.047 | 1.985 ± 0.019
67 | CUCCGG | 0.136 ± 0.061 | 2.044 ± 0.0029 | -0.307 ± 0.12 | 2.05 ± 0.028
68 | GUGGCA | 0.0901 ± 0.037 | 2.011 ± 0.0084 | 0.458 ± 0.2 | 2.02 ± 0.042
69 | GUGGCC | 0.354 ± 0.0094 | 2.02 ± 0.029 | 0.72 ± 0.12 | 2.05 ± 0.023
70 | GUGAAG | 0.207 ± 0.012 | 1.9352 ± 0.0013 | 0.436 ± 0.27 | 2.02 ± 0.043
71 | GUGAAU | 0.0592 ± 0.055 | 1.944 ± 0.0083 | 0.217 ± 0.099 | 2 ± 0.043
72 | GUGAAA | -0.0108 ± 0.075 | 1.956 ± 0.0062 | 0.313 ± 0.017 | 1.981 ± 0.016
